Literature values in article PMC10303925.

How the values were obtained:
MLPH (Homo sapiens) = MLPH (Homo sapiens) (UniProt Q9BV36)
SLP2-A (Homo sapiens) = SLP2-A (Homo sapiens) (UniProt Q9HCH5)
Chain of UniProt Q9HCH5 (Q9HCH5 whole entry): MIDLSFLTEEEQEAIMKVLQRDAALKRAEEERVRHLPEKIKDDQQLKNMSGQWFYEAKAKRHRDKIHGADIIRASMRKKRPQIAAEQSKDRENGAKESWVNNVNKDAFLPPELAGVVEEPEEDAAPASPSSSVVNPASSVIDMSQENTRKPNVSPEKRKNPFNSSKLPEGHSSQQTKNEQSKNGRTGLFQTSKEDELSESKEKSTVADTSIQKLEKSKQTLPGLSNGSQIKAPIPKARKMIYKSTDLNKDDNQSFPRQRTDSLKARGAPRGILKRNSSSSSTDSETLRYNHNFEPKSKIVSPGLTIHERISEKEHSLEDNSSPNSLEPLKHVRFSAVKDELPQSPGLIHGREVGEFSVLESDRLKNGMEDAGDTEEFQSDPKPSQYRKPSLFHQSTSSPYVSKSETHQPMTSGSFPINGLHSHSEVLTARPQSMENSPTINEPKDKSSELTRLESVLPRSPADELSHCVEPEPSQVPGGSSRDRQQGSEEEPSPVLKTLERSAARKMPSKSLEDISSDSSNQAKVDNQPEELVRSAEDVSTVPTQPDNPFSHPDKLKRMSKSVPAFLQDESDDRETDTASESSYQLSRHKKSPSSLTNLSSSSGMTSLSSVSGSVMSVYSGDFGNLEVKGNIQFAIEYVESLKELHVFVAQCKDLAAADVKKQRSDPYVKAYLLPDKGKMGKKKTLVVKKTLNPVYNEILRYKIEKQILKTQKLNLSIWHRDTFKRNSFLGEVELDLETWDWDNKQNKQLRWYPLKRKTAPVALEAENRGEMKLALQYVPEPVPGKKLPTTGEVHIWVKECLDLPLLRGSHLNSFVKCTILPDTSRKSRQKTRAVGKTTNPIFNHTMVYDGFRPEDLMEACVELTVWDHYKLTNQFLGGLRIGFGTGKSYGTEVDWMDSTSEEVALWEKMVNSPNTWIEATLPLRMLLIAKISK

Chain of UniProt Q9BV36 (Q9BV36 whole entry): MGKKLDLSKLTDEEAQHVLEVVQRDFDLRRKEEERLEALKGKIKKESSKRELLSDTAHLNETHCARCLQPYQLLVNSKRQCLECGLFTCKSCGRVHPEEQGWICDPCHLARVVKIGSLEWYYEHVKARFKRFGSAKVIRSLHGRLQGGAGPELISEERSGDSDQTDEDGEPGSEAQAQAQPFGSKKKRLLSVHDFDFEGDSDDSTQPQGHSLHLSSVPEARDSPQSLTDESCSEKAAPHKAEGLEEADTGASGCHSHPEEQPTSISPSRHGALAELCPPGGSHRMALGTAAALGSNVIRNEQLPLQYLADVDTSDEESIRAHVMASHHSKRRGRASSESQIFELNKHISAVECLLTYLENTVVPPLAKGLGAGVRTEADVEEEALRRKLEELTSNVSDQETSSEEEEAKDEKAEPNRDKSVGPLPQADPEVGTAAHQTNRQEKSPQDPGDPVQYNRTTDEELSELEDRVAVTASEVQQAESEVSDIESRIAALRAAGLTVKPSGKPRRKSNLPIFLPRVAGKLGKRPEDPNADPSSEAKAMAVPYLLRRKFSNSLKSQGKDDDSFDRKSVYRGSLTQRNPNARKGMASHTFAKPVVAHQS

Kd (MLPH (Homo sapiens)): 200 nM
Kd (SLP2-A (Homo sapiens)): 20 nM
Substance: RAB27A (from UniProt P51159)
